Experimental data taken from patent US20240165282A1, “CONFORMATIONAL CONSTRAINED SOMATOSTATIN RECEPTOR 3 PEPTIDE LIGANDS AND THEIR CONJUGATES AND USES THEREOF” (STARGET PHARMA LTD., priority 2021, published 2024).
*1 amine or outer side, *2 acyl side, *3 side chain or, on linkers, in order; H or OH if unused. Bridges are numbered along the chain shown (N, C = ends). [ ]: non-standard residue; d: D form. The star is where a group is joined. DOTA = O=C(O)CN1CCN(CC(=O)O)CCN(CC(=O)*)CCN(CC(=O)O)CC1; N(2-mercaptoethyl)Gly = O=C(CN(CCS[*:3])[*:1])[*:2]

Assays:
Assay in all cases: cell-based or functional assay
[1] = biological target: ADCYAP1R1 (human) (UniProt P41586)
[2] = biological target: ADRA1B (human) (UniProt P35368)
[3] = biological target: ADRA2A (human) (UniProt P08913)
[4] = biological target: ADRA2B (human) (UniProt P18089)
[5] = biological target: ADRA2C (human) (UniProt P18825)
[6] = biological target: ADRB1 (human) (UniProt P08588)
[7] = biological target: AGTR1 (human) (UniProt P30556)
[8] = biological target: AGTRL1 (human) (UniProt P35414)
[9] = biological target: BDKRB2 (human) (UniProt P30411)
[10] = biological target: BRS3 (human) (UniProt P32247)
[11] = biological target: C5L2 (human) (UniProt Q9P296)
[12] = biological target: CALCR (CR) (human) (UniProt P30988)
[13] = biological target: CCKAR (human) (UniProt P32238)
[14] = biological target: CCKBR (human) (UniProt P32239)
[15] = biological target: CCR5 (human) (UniProt P51681)
[16] = biological target: CCR8 (human) (UniProt P51685)
[17] = biological target: CHRM3 (human) (UniProt P20309)
[18] = biological target: CNR1 (human) (UniProt P21554)
[19] = biological target: CXCR7 (human) (UniProt P25106)
[20] = biological target: DRD5 (human) (UniProt P21918)
[21] = biological target: EBI2 (human) (UniProt P32249)
[22] = biological target: F2RL1 (human) (UniProt P55085)
[23] = biological target: FFAR1 (human) (UniProt O14842)
[24] = biological target: GALR1 (human) (UniProt P47211)
[25] = biological target: GLP1R (human) (UniProt P43220)
[26] = biological target: GLP2R (human) (UniProt O95838)
[27] = biological target: GPR1 (human) (UniProt P46091)
[28] = biological target: GPR109B (human) (UniProt P49019)
[29] = biological target: GPR120 (human) (UniProt Q5NUL3)
[30] = biological target: HTR1B (human) (UniProt P28222)
[31] = biological target: HTR1F (human) (UniProt P30939)
[32] = biological target: KISS1R (human) (UniProt Q969F8)
[33] = biological target: MC3R (human) (UniProt P41968)
[34] = biological target: MC5R (human) (UniProt P33032)
[35] = biological target: MLNR (human) (UniProt O43193)
[36] = biological target: MRGPRX2 (human) (UniProt Q96LB1)
[37] = biological target: NMU1R (human) (UniProt Q9HB89)
[38] = biological target: NTSR1 (human) (UniProt P30989)
[39] = biological target: OPRK1 (human) (UniProt P41145)
[40] = biological target: OPRM1 (human) (UniProt P35372)
[41] = biological target: OXER1 (human) (UniProt Q8TDS5)
[42] = biological target: P2RY1 (human) (UniProt P47900)
[43] = biological target: P2RY11 (human) (UniProt Q96G91)
[44] = biological target: P2RY6 (human) (UniProt Q15077)
[45] = biological target: PROKR2 (human) (UniProt Q8NFJ6)
[46] = biological target: PTAFR (human) (UniProt P25105)
[47] = biological target: PTGER2 (human) (UniProt P43116)
[48] = biological target: PTGER3 (human) (UniProt P43115)
[49] = biological target: PTGER4 (human) (UniProt P35408)
[50] = biological target: PTGIR (human) (UniProt P43119)
[51] = biological target: RXFP3 (human) (UniProt Q9NSD7)
[52] = biological target: TACR1 (human) (UniProt P25103)
[53] = biological target: TSHR(L) (human) (UniProt P16473)
[54] = biological target: human cloned somatostatin receptor 2 (human) (UniProt P30874)
[55] = biological target: human cloned somatostatin receptor 3 (human) (UniProt P32745)
[56] = biological target: human cloned somatostatin receptor 5 (human) (UniProt P35346)

human cloned somatostatin receptor 3 (human), sequence (P32745 whole entry): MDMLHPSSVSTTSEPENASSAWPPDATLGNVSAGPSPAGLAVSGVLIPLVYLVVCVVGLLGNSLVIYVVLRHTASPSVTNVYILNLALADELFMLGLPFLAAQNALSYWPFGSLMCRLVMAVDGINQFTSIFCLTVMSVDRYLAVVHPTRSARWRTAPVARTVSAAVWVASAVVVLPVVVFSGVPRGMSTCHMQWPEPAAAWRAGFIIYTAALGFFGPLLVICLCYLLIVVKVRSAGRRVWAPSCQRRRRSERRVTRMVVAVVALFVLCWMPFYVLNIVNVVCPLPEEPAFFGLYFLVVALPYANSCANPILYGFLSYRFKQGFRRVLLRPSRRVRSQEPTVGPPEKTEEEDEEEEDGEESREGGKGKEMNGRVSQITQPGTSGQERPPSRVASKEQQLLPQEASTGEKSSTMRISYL
OPRK1 (human), sequence (P41145 whole entry): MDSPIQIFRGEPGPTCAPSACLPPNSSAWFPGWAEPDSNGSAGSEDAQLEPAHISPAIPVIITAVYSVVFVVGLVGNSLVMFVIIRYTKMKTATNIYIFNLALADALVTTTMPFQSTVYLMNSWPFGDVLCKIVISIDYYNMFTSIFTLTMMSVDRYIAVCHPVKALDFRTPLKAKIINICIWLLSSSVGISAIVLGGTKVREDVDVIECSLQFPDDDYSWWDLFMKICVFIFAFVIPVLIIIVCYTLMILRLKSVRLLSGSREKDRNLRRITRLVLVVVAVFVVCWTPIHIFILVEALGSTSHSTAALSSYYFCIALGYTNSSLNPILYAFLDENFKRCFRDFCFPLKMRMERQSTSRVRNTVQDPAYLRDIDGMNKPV
ADRB1 (human), sequence (P08588 whole entry): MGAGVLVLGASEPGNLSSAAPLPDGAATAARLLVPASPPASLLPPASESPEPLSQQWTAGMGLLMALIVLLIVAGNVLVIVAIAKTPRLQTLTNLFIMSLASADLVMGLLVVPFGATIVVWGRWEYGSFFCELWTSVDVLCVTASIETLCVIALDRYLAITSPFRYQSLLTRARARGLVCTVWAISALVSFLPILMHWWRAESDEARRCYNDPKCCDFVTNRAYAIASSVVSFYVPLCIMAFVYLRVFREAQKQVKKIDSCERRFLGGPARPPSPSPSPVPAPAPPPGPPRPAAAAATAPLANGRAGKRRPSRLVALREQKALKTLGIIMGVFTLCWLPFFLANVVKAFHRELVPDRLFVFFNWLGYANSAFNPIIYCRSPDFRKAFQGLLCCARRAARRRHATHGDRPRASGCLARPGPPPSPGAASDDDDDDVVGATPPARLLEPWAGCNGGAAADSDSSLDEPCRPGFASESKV
CCR8 (human), sequence (P51685 whole entry): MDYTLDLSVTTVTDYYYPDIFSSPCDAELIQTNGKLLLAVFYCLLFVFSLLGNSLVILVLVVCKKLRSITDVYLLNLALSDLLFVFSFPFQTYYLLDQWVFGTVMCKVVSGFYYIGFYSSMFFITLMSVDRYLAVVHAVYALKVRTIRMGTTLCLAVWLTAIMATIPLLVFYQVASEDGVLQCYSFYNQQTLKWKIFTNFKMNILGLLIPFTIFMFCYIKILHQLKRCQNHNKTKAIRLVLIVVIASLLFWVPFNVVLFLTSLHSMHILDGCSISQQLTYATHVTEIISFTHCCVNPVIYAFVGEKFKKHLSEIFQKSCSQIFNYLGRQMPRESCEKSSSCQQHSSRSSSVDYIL
PROKR2 (human), sequence (Q8NFJ6 whole entry): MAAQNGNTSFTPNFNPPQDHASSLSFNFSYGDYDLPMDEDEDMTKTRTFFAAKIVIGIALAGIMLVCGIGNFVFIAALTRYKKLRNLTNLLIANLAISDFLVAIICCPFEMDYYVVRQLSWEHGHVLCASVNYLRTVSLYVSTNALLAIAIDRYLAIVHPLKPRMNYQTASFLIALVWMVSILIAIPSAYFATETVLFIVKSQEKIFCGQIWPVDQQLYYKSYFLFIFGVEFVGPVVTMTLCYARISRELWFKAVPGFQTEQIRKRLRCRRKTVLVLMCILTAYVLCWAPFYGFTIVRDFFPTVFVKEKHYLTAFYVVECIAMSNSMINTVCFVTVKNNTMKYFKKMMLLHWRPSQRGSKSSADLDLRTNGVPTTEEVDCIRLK
RXFP3 (human), sequence (Q9NSD7 whole entry): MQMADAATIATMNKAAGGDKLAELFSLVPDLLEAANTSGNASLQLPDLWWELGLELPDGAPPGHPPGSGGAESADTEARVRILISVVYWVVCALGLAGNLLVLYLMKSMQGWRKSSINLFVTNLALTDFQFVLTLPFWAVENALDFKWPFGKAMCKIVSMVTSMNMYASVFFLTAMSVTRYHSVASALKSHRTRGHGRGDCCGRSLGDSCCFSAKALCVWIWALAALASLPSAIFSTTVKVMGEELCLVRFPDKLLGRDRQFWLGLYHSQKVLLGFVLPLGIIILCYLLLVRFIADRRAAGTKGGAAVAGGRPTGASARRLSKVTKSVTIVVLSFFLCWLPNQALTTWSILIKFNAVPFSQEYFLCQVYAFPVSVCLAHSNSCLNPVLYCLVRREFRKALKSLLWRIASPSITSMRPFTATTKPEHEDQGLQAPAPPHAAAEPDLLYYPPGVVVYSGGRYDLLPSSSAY
GPR120 (human), sequence (Q5NUL3 whole entry): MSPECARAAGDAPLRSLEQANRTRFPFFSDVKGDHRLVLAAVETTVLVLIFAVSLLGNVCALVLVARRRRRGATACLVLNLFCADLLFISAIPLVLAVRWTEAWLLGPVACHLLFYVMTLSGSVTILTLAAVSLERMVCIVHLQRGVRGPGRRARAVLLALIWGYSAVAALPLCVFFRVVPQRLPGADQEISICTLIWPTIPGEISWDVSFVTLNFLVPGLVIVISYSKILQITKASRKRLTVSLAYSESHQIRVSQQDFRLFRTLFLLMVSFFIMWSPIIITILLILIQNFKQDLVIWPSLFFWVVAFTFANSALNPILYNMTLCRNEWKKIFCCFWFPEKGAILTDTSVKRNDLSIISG
P2RY6 (human), sequence (Q15077 whole entry): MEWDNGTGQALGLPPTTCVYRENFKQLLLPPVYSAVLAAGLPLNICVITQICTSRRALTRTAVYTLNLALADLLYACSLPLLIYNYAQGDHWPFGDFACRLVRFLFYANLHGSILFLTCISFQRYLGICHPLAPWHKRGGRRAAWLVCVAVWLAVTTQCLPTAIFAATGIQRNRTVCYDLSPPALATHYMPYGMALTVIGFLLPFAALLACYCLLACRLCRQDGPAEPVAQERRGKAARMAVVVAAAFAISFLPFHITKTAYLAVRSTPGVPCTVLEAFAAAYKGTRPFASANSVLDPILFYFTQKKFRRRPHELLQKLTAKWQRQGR
human cloned somatostatin receptor 2 (human), sequence (P30874 whole entry): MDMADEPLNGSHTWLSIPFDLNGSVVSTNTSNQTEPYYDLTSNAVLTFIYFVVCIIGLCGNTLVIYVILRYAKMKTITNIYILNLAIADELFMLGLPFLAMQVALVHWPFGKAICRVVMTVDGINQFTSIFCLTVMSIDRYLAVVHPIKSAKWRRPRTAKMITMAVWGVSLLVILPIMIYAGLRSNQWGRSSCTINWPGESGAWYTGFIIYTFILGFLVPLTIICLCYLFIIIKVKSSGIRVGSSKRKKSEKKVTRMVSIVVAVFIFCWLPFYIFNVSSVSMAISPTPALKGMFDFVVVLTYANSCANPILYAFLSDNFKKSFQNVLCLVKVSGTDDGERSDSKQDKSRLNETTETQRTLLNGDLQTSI
CALCR (CR) (human), sequence (P30988 25-474): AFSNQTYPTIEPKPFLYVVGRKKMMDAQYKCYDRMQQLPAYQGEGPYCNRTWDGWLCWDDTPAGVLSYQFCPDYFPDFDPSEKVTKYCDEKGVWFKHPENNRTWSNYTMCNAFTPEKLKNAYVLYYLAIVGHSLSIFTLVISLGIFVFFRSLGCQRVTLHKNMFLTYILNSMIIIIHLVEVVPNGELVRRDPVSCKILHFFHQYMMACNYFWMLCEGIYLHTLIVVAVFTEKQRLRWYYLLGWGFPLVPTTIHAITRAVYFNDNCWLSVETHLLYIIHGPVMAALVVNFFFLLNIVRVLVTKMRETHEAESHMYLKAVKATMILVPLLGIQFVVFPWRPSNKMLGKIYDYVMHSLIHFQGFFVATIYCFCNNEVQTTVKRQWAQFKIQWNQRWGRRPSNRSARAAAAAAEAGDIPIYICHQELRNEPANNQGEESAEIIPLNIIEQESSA
PTGER3 (human), sequence (P43115 whole entry): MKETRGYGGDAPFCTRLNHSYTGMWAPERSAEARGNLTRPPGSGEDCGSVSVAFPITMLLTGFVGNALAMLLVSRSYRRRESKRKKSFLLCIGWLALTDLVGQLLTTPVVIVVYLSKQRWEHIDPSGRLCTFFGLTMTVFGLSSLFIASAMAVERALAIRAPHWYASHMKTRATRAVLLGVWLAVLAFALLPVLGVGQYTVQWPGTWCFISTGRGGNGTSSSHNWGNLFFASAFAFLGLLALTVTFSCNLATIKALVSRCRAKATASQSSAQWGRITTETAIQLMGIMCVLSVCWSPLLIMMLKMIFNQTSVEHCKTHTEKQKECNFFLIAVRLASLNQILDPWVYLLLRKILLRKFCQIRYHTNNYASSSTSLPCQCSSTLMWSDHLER
PTGIR (human), sequence (P43119 1-383): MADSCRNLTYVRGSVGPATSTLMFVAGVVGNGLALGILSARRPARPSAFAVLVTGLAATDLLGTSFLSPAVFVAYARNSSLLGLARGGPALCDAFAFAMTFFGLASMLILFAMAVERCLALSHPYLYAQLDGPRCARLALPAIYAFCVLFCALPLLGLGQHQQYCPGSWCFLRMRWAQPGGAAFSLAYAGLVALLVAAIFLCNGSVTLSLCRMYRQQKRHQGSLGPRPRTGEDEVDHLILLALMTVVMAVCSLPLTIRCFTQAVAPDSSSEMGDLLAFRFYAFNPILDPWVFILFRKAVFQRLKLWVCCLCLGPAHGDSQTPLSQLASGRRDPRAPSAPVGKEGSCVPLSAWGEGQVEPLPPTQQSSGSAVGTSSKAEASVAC

B1: SEQ ID NO: 4 (peptide)
peptide: {DOTA}-[dF]RCF[dW]KTF[N(2-mercaptoethyl)Gly]-NH2
modifications: disulfide 3-9; also: Ga complex of DOTA
% Activity (agonist mode, 1 µM) [1]: 0% | % Activity (agonist mode, 1 µM) [2]: -2% | % Activity (agonist mode, 1 µM) [3]: 3% | % Activity (agonist mode, 1 µM) [4]: -1% | % Activity (agonist mode, 1 µM) [5]: -8% | % Activity (agonist mode, 1 µM) [6]: 1% | % Activity (agonist mode, 1 µM) [7]: -2% | % Activity (agonist mode, 1 µM) [8]: -1% | % Activity (agonist mode, 1 µM) [9]: 0% | % Activity (agonist mode, 1 µM) [10]: 1% | % Activity (agonist mode, 1 µM) [11]: -1% | % Activity (agonist mode, 1 µM) [12]: 0% | % Activity (agonist mode, 1 µM) [13]: 0% | % Activity (agonist mode, 1 µM) [14]: 2% | % Activity (agonist mode, 1 µM) [15]: 1% | % Activity (agonist mode, 1 µM) [16]: 0% | % Activity (agonist mode, 1 µM) [17]: 1% | % Activity (agonist mode, 1 µM) [18]: -1% | % Activity (agonist mode, 1 µM) [19]: -1% | % Activity (agonist mode, 1 µM) [20]: -2% | % Activity (agonist mode, 1 µM) [21]: -1% | % Activity (agonist mode, 1 µM) [22]: -4% | % Activity (agonist mode, 1 µM) [23]: -4% | % Activity (agonist mode, 1 µM) [24]: 2% | % Activity (agonist mode, 1 µM) [25]: 0% | % Activity (agonist mode, 1 µM) [26]: -1% | % Activity (agonist mode, 1 µM) [27]: 0% | % Activity (agonist mode, 1 µM) [28]: -3% | % Activity (agonist mode, 1 µM) [29]: -4% | % Activity (agonist mode, 1 µM) [30]: -1% | % Activity (agonist mode, 1 µM) [31]: 0% | % Activity (agonist mode, 1 µM) [32]: 0% | % Activity (agonist mode, 1 µM) [33]: 0% | % Activity (agonist mode, 1 µM) [34]: -5% | % Activity (agonist mode, 1 µM) [35]: 1% | % Activity (agonist mode, 1 µM) [36]: 1% | % Activity (agonist mode, 1 µM) [37]: 1% | % Activity (agonist mode, 1 µM) [38]: 3% | % Activity (agonist mode, 1 µM) [39]: -2% | % Activity (agonist mode, 1 µM) [40]: 1% | % Activity (agonist mode, 1 µM) [41]: -2% | % Activity (agonist mode, 1 µM) [42]: -2% | % Activity (agonist mode, 1 µM) [43]: 0% | % Activity (agonist mode, 1 µM) [44]: 0% | % Activity (agonist mode, 1 µM) [45]: 2% | % Activity (agonist mode, 1 µM) [46]: -2% | % Activity (agonist mode, 1 µM) [47]: 1% | % Activity (agonist mode, 1 µM) [48]: 1% | % Activity (agonist mode, 1 µM) [49]: -2% | % Activity (agonist mode, 1 µM) [50]: 0% | % Activity (agonist mode, 1 µM) [51]: -3% | % Activity (agonist mode, 1 µM) [52]: 0% | % Activity (agonist mode, 1 µM) [53]: -1% | % Activity (agonist mode, 1 µM) [54]: 9% | % Activity (agonist mode, 1 µM) [55]: 200% | Cellular Internalization EC50 (β-Arrestin Luminescence Assay) [55]: 16 nM | Efficacy - maximal response [55]: 75200 RLU | intensity of beta-arrestin response against SRIF-14 [55]: 2 fold | % Activity (agonist mode, 1 µM) [56]: 16%
